The values that follow come from US20190203248A1 (Bristol-Myers Squibb, published 2019).

Positions of bridges follow the written chain, without caps; N, C: chain ends. No end group written: not given here. Some results are limits rather than exact numbers.

Test [1] concerns the target human β-klotho (human, UniProt Q86Z14 1-1044). The experiment in a line: cell-based or functional assay.
In test [2] the target is β-klotho of differentiated 3T3-L1 adipocytes (mouse) (UniProt Q99N32). Nature of the test: cell-based or functional assay.
β-klotho of differentiated 3T3-L1 adipocytes (mouse), sequence (Q99N32 whole entry): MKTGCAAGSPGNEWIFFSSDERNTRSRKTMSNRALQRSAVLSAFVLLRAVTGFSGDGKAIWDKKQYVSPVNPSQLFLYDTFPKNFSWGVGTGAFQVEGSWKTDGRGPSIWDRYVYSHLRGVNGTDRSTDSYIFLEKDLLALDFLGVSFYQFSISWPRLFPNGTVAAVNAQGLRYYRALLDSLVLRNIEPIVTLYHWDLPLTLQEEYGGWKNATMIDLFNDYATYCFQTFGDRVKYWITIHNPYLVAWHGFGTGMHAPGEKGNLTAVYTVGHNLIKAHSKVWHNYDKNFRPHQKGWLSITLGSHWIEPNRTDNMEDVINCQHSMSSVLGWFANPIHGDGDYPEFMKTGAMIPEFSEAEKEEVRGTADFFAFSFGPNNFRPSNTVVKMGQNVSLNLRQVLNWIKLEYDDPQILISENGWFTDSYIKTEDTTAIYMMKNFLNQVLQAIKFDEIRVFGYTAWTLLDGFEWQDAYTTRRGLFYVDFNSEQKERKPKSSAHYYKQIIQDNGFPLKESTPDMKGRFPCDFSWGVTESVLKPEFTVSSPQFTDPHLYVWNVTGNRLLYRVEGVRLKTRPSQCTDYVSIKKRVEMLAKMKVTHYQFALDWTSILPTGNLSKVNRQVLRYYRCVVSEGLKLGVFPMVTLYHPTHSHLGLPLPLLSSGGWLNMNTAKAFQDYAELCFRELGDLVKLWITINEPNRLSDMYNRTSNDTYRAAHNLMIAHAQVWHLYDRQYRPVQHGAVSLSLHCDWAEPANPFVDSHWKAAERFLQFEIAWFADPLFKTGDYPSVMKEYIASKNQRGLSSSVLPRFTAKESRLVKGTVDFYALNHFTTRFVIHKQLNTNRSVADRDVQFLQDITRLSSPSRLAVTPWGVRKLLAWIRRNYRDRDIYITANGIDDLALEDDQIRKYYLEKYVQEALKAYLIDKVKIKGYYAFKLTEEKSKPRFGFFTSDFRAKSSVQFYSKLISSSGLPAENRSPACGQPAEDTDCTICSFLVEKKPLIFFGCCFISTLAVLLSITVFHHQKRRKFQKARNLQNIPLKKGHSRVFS
Test [3] has as its target T1, murine serum albumin (mouse, UniProt P07724 25-608).
T1 construct: also called MuSA; mouse serum albumin
Nature of the test: SPR (Biacore), albumin immobilized on CM5 chip.
Procedure: (§3) In addition, binding to albumin was carried out under various pH conditions ranging from pH 5.5 to pH 7.4.

The target in test [4] is T2, human serum albumin (human, UniProt P02768 25-609).
T2 construct: also called HSA; HuSA
Nature of the test: SPR (Biacore), albumin immobilized on CM5 chip. In general terms: Surface plasmon resonance follows binding to a sensor surface in real time, without labels.
Procedure: as §3

Test [5] addresses T3, rhesus serum albumin (rhesus, UniProt Q28522 17-600).
T3 construct: also called RhSA
The experiment in a line: SPR (Biacore), albumin immobilized on CM5 chip.
Procedure: as §3

Test [6] concerns the target human NPY Y4 receptor (human, UniProt P50391 1-375). The experiment in a line: cell-based or functional assay.
In test [7] the target is Amylin receptor (chimpanzee; human, UniProt O60894 27-148). The experiment in a line: cell-based or functional assay.
Amylin receptor, sequence (O60894 27-148): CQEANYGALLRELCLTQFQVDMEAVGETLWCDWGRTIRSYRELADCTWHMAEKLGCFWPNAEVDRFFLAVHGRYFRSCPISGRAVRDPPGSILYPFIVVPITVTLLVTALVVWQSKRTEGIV
In test [8] the target is T2, human serum albumin. The experiment in a line: Affinity for hSA by SPR (same value as in Table 21). As for the experimental part:
(§1) Surface Plasmon Resonance (SPR) is a direct binding technique by which molecular interactions can be observed in real time. For these experiments, SPR binding studies were performed using a ProteOn XPR36 instrument (BioRad Laboratories). The running buffer, phosphate buffered saline 0.05% Tween 20 pH 7.4, was purchased from Teknova (cat #P1192) and all experiments were run at 25° C. Human serum albumin was directly immobilized on a BioRad GLC chip via amine coupling as per manufacturer's guidelines using amine coupling reagents purchased from BioRad Laboratories. Human serum albumin was purchased from Novozymes (Recombumin™). About 5000 resonance units (RU) of human serum albumin were immobilized onto 4 separate lanes of the GLC chip surface. […] The dissociation was monitored for 600 seconds. The surface was regenerated with 100 mM HCl. The resultant data were fitted to a Langumuir 1:1 binding model using the ProteOn Manager Software. The experiment was repeated with a different concentration range. In this second experiment, 5 concentrations ranging from 500 nM to 32 nM were injected over the surfaces, and the data analyzed as above. The KD is the disassociation constant. Smaller numbers indicate tighter binding to serum albumin.

In test [9] the target is T2, human serum albumin. Nature of the test: SPR (ProteOn XPR36), HSA immobilized on GLC chip, 25 C. As for the experimental part:
as §1

In test [10] the target is T4, human NPY Y2 receptor (human, UniProt P49146 1-381).
T4 sequence (looked up): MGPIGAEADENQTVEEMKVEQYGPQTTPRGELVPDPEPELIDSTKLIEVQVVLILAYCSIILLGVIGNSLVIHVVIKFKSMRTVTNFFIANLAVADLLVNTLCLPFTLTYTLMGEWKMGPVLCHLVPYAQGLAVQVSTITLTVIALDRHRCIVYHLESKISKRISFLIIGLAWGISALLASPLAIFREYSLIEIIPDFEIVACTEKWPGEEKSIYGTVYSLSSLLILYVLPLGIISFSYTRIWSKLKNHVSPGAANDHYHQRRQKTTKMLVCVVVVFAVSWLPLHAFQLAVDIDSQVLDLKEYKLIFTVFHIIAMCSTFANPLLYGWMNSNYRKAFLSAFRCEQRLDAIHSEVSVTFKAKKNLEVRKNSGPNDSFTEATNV
Nature of the test: cell-based or functional assay.

Test [11] has as its target T2, human serum albumin. Nature of the test: SPR (Biacore T100), HSA immobilized, 37 C, 30 µl/min. As for the experimental part:
(§2) Serum albumins were dissolved in PBS buffer (10 mM sodium phosphate, 130 mM sodium chloride, pH 7.1) to a concentration of 10 mg/ml, and subsequently diluted to 8-10 μg/ml in 10 mM sodium acetate pH 5.0 for immobilization. Serum albumins were immobilized on a Series S CM5 sensor chip using standard ethyl(dimethylaminopropyl) carbodiimide (EDC)/N-hydroxysuccinimide (NHS) chemistry in HBS-EP+ running buffer at 25° C., following general manufacturer guidelines. Flow cell 1 was activated with EDC/NHS and blocked with ethanolamine. […] Kinetic experiments were performed in PBS buffer containing 0.05% tween-20 (running buffer) at either 25° C. or 37° C. […] These samples were injected across flow cells 1-4 for 300 s, with a 420 s dissociation time, at flow rates of 30 μl/min or 60 μl/min to check for mass transfer limitation. All surfaces were regenerated with 2 pulses of 10 mM glycine pH 2.0 at 30 μl/min for 30 s. Raw sensograms were “double-referenced” by subtracting flow cell 1 data from flow cell 2, 3 or 4 data, and then subtracting a separate buffer cycle from each sensogram. The double-referenced sensogram data was fitted to a 1:1 Langmuir model using Biacore T100 Evaluation software version 2.0.2 to determine the association rate constant (ka), the dissociation rate constant (kd), and the equilibrium dissociation constant (KD).

For test [12], the target named is T2, human serum albumin. The experiment in a line: SPR (Biacore T100), HSA immobilized, 37 C, 60 µl/min. As to the method:
as §2

The target in test [13] is T5, cynomolgous monkey serum albumin (cynomolgous monkey, UniProt A2V9Z4 25-608).
T5 construct: also called CySA
T5 sequence (A2V9Z4 25-608 limits assumed): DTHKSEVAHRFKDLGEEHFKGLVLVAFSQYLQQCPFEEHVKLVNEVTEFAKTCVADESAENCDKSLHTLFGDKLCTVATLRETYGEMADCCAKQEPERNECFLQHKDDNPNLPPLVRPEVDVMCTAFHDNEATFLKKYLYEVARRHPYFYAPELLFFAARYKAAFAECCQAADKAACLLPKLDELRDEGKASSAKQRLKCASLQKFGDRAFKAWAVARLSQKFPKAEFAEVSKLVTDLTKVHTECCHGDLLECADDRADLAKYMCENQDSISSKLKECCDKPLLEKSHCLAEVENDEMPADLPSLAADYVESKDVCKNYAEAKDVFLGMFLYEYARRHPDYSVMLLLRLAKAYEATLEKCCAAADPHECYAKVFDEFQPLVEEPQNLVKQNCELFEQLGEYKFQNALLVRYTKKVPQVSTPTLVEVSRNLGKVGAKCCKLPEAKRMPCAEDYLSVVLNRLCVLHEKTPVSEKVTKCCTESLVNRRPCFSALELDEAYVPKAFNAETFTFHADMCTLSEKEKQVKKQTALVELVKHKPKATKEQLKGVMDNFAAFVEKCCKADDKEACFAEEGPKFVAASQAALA
The experiment in a line: SPR (Biacore T100), CySA immobilized, 37 C, 30 µl/min. As to the method: as §2

Test [14] has as its target T5, cynomolgous monkey serum albumin. The experiment in a line: SPR (Biacore T100), CySA immobilized, 37 C, 60 µl/min. As to the method:
as §2

In test [15] the target is T1, murine serum albumin. The experiment in a line: SPR (Biacore T100), immobilized MuSA, analyte series 1000 to 62.5 nM, 37 C. As for the experimental part:
as §2

T3 sequence (Q28522 17-600 limits assumed): as the sequence (A2V9Z4 25-608 limits assumed) above
T1 sequence (P07724 25-608 limits assumed): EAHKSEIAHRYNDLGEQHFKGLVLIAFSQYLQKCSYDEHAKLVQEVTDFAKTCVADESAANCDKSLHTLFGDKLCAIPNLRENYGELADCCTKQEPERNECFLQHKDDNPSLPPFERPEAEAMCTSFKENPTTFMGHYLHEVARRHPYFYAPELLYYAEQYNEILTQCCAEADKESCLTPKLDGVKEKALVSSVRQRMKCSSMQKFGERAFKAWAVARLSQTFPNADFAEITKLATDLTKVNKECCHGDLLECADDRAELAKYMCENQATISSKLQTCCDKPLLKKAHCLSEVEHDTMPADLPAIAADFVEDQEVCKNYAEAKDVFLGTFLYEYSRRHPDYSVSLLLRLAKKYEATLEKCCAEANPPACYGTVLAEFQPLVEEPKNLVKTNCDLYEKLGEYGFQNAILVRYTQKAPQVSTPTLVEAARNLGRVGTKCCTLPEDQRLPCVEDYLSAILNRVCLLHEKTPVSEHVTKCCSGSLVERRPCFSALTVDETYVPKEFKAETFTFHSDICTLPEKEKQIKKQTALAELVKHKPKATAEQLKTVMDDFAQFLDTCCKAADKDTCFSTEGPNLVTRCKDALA
human NPY Y4 receptor, sequence (P50391 whole entry): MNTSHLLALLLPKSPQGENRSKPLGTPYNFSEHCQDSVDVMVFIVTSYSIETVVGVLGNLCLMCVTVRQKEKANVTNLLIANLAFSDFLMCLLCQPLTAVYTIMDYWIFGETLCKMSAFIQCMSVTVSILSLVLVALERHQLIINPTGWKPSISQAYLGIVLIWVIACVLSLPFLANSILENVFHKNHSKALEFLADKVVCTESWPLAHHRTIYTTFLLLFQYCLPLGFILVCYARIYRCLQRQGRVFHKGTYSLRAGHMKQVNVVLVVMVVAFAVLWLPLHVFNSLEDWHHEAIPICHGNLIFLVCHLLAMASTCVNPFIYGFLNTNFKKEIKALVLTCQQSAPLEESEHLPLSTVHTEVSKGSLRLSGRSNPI

Consider “His-tagged FGF21 (from UniProt Q9NSA1 29-209) (ligand)”, for which, in test [1], the EC50 (nM), pERK 1/2 assay in HEK β-Klotho expressing stable cells was 7 nM and the Efficacy (%), pERK 1/2 assay in HEK β-Klotho expressing stable cells is 100%. Further, in test [2], the EC50 (nM), pERK assay in 3T3-L1 adipocytes came to 4 nM and the Fold Activation, pERK assay in 3T3-L1 adipocytes stood at 2.1 fold.

B1: SABA2.1 (designed binder)
chain: MGVSDVPRDLEVVAATPTSLLISWPKYDKTGHYYRITYGETGGNSPVQEFTVPTRQTTATISGLKPGVDYTITVYAVSKDDYYPHEHRPISINYRTEIDKPSQHHHHHH
notes: His6-tagged Adnectin core 2
For orientation: Kd means the equilibrium constant for the complex coming apart. Usually koff stands for the rate constant with which the complex falls apart. Consider B1, for which the binding result in [3] is “no binding”. In addition, in test [4], binding was put at a Kd of 33.8 nM and the koff was determined as 0.000171 s⁻¹. In test [5], the Kd is 63.6 nM and the koff was 0.000442 s⁻¹.

B2: SABA3.1 (designed binder)
chain: MGVSDVPRDLEVVAATPTSLLISWSNDGPGLSYYRITYGETGGNSPVQEFTVPSSQTTATISGLKPGVDYTITVYAVSYYTKKAYSAGPISINYRTEIDKPSQHHHHHH
notes: His6-tagged Adnectin core 3
On to B2, for which the binding result in test [3] was “no binding”. For the same molecule, the Kd amounted to 863 nM in test [4] and 431 nM in [5]. The koff in [4] was found to be 0.0682 s⁻¹; in [5], 0.0337 s⁻¹.

B3: PP Control Peptide (peptide)
peptide: APLEPMYPGDYATPEQMAQYETQLRRYINTLTRPRY-NH2
As to B3, the “Potency (EC50, nM), GTPγS binding functional assay” value in [6] was 1.7 nM.

B4: SABA1.1 (designed binder)
chain: MGVSDVPRDLEVVAATPTSLLISWHSYYEQNSYYRITYGETGGNSPVQEFTVPYSQTTATISGLKPGVDYTITVYAVYGSKYYYPISINYRTEIDKPSQHHHHHH
On to B4, for which the binding result in test [3] is on record as “no binding”. Further, the Kd turned out to be 47.2 nM in test [4] and 778 nM in test [5]. Besides, the koff in [4] amounted to 0.000457 s⁻¹; in test [5], 0.00545 s⁻¹.

B5: SABA1-AMYv25 (designed binder)
chain: MGVSDVPRDLEVVAATPTSLLISWHSYYEQNSYYRITYGETGGNSPVQEFTVPYSQTTATISGLKPGVDYTITVYAVYGSKYYYPISINYRTEIEDEDEDEDEDGC
modifications: Maleimide-PEG20 spacer (X1) between the Cys after (ED)5G and AMYv5 (rat amylin); C-terminal amidation; disulfide bridge between the two Cys residues of amylin
notes: also called SABA-Amylin-CONH2 conjugate; SABA1.7-(ED)5G-Cys-PEG20-Amylin-CONH2
For orientation: kon means a measure of how fast the partners come together. B5: in test [7], the “Cell based Potency (EC50, nM), cellular cAMP assay” value was determined as 12.2 nM and the “Efficacy (% of native peptide ligand maximal activity), cellular cAMP assay” value turned out to be 119%. In addition, in test [8], the dissociation constant Kd stood at 25.8 nM. Further, in test [9], binding was put at a Kd of 25.8 nM, the dissociation rate constant (koff) turned out to be 0.000241 s⁻¹ and the kon was 9340 M⁻¹ s⁻¹.

B6: SABA1-PYYv7 (designed binder)
chain: B5 chain
modifications: Maleimide-PEG20 spacer (X1) between the Cys after (ED)5G and PYYv17 (mouse PYY3-36); C-terminal amidation
notes: also called SABA-PYY3-36-CONH2 conjugate; SABA1.7-(ED)5G-Cys-PEG20-PYY-CONH2
As for B6, the “Potency (EC50, nM), GTPγS binding functional assay” value in test [10] is 52 nM. This molecule yielded a dissociation constant Kd in test [8] of 22.5 nM. Also, in test [9], the affinity, expressed as Kd, was 22.5 nM; the koff came to 0.000208 s⁻¹; the kon is 9290 M⁻¹ s⁻¹.

B7: SABA1-PPv7 (designed binder)
chain: B5 chain
modifications: Maleimide-PEG20 spacer (X1) between the Cys after (ED)5G and PPv9 (mouse PP); C-terminal amidation
notes: also called SABA-PP-CONH2 conjugate; SABA1-APPv7
As for B7, the “Potency (EC50), GTPγS binding functional assay” value in test [6] was greater than 1000 nM. Also, in test [8], binding was put at a Kd of 18.8 nM. In test [9], this molecule displayed a dissociation constant (Kd) of 18.8 nM, a koff of 0.000142 s⁻¹ and an on-rate (kon) of 7880 M⁻¹ s⁻¹.

B8: SABA1-FGF21v3 (designed binder)
chain: MGVSDVPRDLEVVAATPTSLLISWHSYYEQNSYYRITYGETGGNSPVQEFTVPYSQTTATISGLKPGVDYTITVYAVYGSKYYYPISINYRTEIDKPSQHHHHHHGSGSGSGSGSGSGSPIPDSSPLLQFGGQVRQRYLYTDDAQQTEAHLEIREDGTVGGAADQSPESLLQLKALKPGVIQILGVKTSRFLCQRPDGALYGSLHFDPEACSFRELLLEDGYNVYQSEAHGLPLHLPGNKSPHRDPAPRGPARFLPLPGLPPALPEPPGILAPQPPDVGSSDPLSMVGPSQGRSPSYAS
notes: Fusion of SABA1 and FGF21; also called SABA1-FGF21 variant 3
With B8, the Kd in test [11] came out at 170 nM; in test [12], 180 nM; in [13], 2200 nM; in [14], 3100 nM. For the same molecule, the dissociation rate constant (koff) turned out to be 0.00103 s⁻¹ in test [11], 0.00107 s⁻¹ in test [12], 0.0117 s⁻¹ in [13] and 0.0136 s⁻¹ in [14]. In addition, the on-rate constant (kon) in [11] turned out to be 6160 M⁻¹ s⁻¹; in test [12] it was 5870 M⁻¹ s⁻¹; in test [13], 5310 M⁻¹ s⁻¹; in test [14], 4380 M⁻¹ s⁻¹. Moreover, the binding result in test [15] is given as “no binding (tested: 1000 nM)”.

B9: Amylin Control Peptide (peptide)
peptide: KCNTATCATQRLANFLVRSSNNLGPVLPPTNVGSNTY-NH2
modifications: disulfide 2-7
For the molecule B9, the “Efficacy (% of native peptide ligand maximal activity), cellular cAMP assay” value in test [7] is 100%.

B10: SABA4.1 (designed binder)
chain: MGVSDVPRDLEMVAATPTSLLISWEDDSYYSRYYRITYGETGGNSPVQEFTVPSDLYTATISGLKPGVDYTITVYAVTYDVTDLIMHEPISINYRTEIDKPSQHHHHHH
notes: His6-tagged Adnectin core 4; has a scaffold mutation; the scaffold-perfect version is SABA5
In the case of B10, the binding result in test [3] is given as “no binding”. In test [4], the dissociation constant (Kd) stood at 412 nM and the koff came to 0.000782 s⁻¹. Moreover, in [5], the equilibrium dissociation constant (Kd) was greater than 1000 nM and the off-rate constant (koff) turned out to be 0.00383 s⁻¹.
